From patent US5739281 come the findings set out here.

For the experiment, the target named is natural affinity purified heavy chain class I K^d molecules. Put plainly: binding to natural class I heavy chain molecules, format not given (follows the binding inhibition experiment).

In the case of Recombinant murine β2-microglobulin, the affinity, times lower than that of the (human) β2-microglobulin worked out at 5 times lower.
